From the nanobody polyreactivity screen of Harvey et al. (2022)

test: yeast display, Sf9 membrane polyspecificity reagent, FACS + sequencing; frameworks hold sequencing errors
Procedure, shortened: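 In a synthetic yeast display library (Saccharomyces cerevisiae BJ5465), nanobody expression was induced with galactose for 36–48 hours. FACS gates were set low and high (top ~1%) using anti-HA fluorescence for expression and streptavidin fluorescence for binding of the Sf9 membrane reagent. Each polyreactivity label is drawn from the gate of origin.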

Sequence	polyreactivity (PSR sort gate)
QVQLVESGGGLVQAGGSLRLSCAASGIIFDEYAMGWYRQAPGKEREMVAAITSGGSTYYADSVKGRFTISRDNAKNTVYLQMNSLKPEDTAVYYCNAYSSYGTFFYWAWPYYYWGQGTQVTVSS	high polyreactivity
QVQLVESGGGLVQAGGSLRVSCAASGSIFGTYAMGWYRPAPGKERELVAAITSDGVDTYYADSVKGRFTISRDNAKNTVYLQMNSLKPEDTEVYYCAAEYEGLYGYGYWGQGTQVTVSS	high polyreactivity
QVQLVESGGGLVQAGGSLRLSCAASGITLSWYAMGWYRQAPGKERELVAGISGRGGRTYYADSVKGRFTLSRDNAKNTVYLQMNSLKPEDTAVYYCAADSPGYRSYDYWGQGTQVTVSS	high polyreactivity
QVQLVETGPGLVQAGGSLRLSCAASGSIFGTYAMGWYRQAPGKERELVAAITGNGGRTYYADSVKGRFTISRDNAKNTVFLQMNSLKPEDTAVYYCAKATSRRGFYDWGPGTQVTVSS	high polyreactivity
QVQLVESGGGLVQAGGSLRLSCAASGSIFNGNAMGWYRQAPGKERELVAAISRNGGSTYYADSVKGRFTISRDNAKNTVYLQMNSLKPEDTAVYYCAVRKRPHGYLAFGYWGQGTQVTVSS	low polyreactivity
QVQLEESGGGLVQAGGSLRLSCAASGFIYRGYTMGWYRTAPGKERELVAGITSTASTNYADSVKGRFTISRDNAKNTVYLQMNSLKPEDTAVYYCAAGVPYRLRNRYYYWGQGTQVTVSS	high polyreactivity
QVQLVESGGGLVQAGGRLRLSCAASGSIFFAYAMGWYRQAPGKERELVAAITSGVSTNYADSVKGRFTISRDNAKNTVYLQMNSLKPEDTAVYYCNADFDYGFDAGVAVQVVIHDYWGQGTQVTVSS	low polyreactivity
QVQLVESGGGLVQAGGSIRLSCAASGSISAEKSMGRDRQAPGKERELVAAITSGGSTDYADSVKGRFTISRDNAKNNVYLQMNSLKPVDTAVSYCAASGRVGPGYWYDYWGQGTQVTVSS	low polyreactivity
QVQLVESGGGLVHPGGSLRLSCAASGRTYAVDAMGWYRQAPGKERELVAAISRRGGSTSYADSEKGRFTISRDNAKNTVSLQMNSLKPEDTAVYYCNTDPGKFTPFDYWGQGTQVTVSS	high polyreactivity
QVQLVESGGGLVQAGGSLRIICAASGYIFVRNAMGWYRQAPGKERELVAAISCSGGSTYYADSVKGRFTISRDNAKNTVFLQMNSLKPEDTAVYSCAADYATVTWRGIAYDYWGQGTQVTVSS	low polyreactivity
QVQLVESGGGLVQAGGSLRLSCAASGSTLVKYAMGWYRQAPGKERELVAAISWSGGRTYYADSVKGRFTISRDNAKNTVYLQMNSLKPEDTAVYYCNAEFRGRPPSFAIKYDYWGQGTQVTVSS	high polyreactivity
QGQLVESGGGLVQAGGSLRLSCAASGSIFVYNVMGWYRQEPGKATELVADISKTAGRTYSADSVKGRFTISRDNAKNTVYLQINSLKPEDTAVSYCAVGNKRDAYYQYSSYGYWGQGTQVTVSS	low polyreactivity
QVQLVESGGGLVQAGGSLRLSCAASGRTFGQYAMGWYRQAPGKEREFVAGITWSGGSTSYADSVKGRFTISRDNAKNTVYLQMNSLKPEDTAVYYCIAVYWKPSLEYGYWGQGTQVTVSS	high polyreactivity
QVQLVESGGGLVQAGGSLRLSCAASGSTFTQYAMGWYRQEPGKERELVAAITGSGGRTYYADSVKGRFTISRDNAKNTVYLQMNSLKPEDTAVYYCAARDKFGGYYHWGQGTQVTVSS	high polyreactivity
QVQLVESGGGLVQAGGSLRLSCAASGSIFTYYAMGWYRQAPGKERELVAAISSDGSTTYADSVKGRFTISRDNAKNTVYLQMNSLKPEDTAVLLLQRSGLRRSGVWFDYWGQGTQVTVSS	low polyreactivity
QVQLVESGGGLVQAGGILRLSCDASGLIFGPYTMGWYRQAPGKERELVAAISYGGVSTYYADSVKGRFTISRDNAKNTVYLQMNSLKPEDTAVYYCARGDSTRVIRPSAREYDYWGQGTQVTVSS	low polyreactivity

Sequence	polyreactivity (PSR sort gate)
QVQLVESGGGLVQAGGSLRLSCAASGSTIGLNAMGWYIQEPGKEREFVAAISVSSGNKYYADSVKGRFTISRDNAKNTVYLQMNSLKPEDTAVYYCAARPRSHYIAQYYYWGQGTHVTVSS	low polyreactivity
QVQLVESGGGLVQAGGSLRLSCAASGRTFSLYAMGWYRQAPGKERELVARIRSSTRTTYADSVKGRFTISRDNAKNTVYLQMNSLKPEDTAVYYCAADSGYRYYTKSVGYDYWGQGTQVTVSS	high polyreactivity
QVQLVESGGGLVQAGGSLRLSCAASGRTLPYYMRWYRQAPGKERELVAAITNGDSTYYADSVKGRFTISRDNAQNTVYLQMNSLKPEDTAVYDCAARQKVPPQYWGQGTQVTVSS	high polyreactivity
QVQLVESGGGLVQAGRSLRLTCAASGRTFLANAMGWYRQAPGKEREFVAAIDWRTGSTYYADSVKGRFTISRDNAKNSVYLQRNSLNPEDTAVYYCAKDSSSYYYAHFYYWGQGTQVTVSS	high polyreactivity
QVQLAESGGGLVQAGGSLRLSCAASGFILHHYTMGWYRQAPGKERELVAAISRSGGSTYYADSVKGRFTISRDNAKNTVYLQMNSLKPEDTAVYYCAKRVSTYGFSGYDYWGQGSQVTVSS	high polyreactivity
QDQLVESGGGLVQAGGSLRLSCAASVFIFYSYTRGWYRQAPGKERELVATISSNGGRTYYADSVKGRFTISRDNAKNTVYLQMNSLKPEDTAVYYCATDVPHGYYWSYGDYYCGQGTQVTVSS	low polyreactivity
QVQLVESGGGLVQAGGSLRLSCAASGSTLYAYVMGWYRQAPGKERELVATISWSGGRTYYADSVKGRFTISRDNAKNTVYLQMNSLKPEDTAVYYCNARRRYSYVSRKFDYWGQGTQVTVSS	high polyreactivity
QVQLVESGGGLVQAGGSLRLSCAASGITFRRYTMGWYRQAPGKEWELVATISLSDGNTYYADSVKGRFTISRDNAKTTVYLQMNSLKPEDTAGYYCNARHTWHQTYDYWGQGTQVTVSS	low polyreactivity
QVQIVESRGGLVQAGGSLRLSCAASGSIIRYYVMGWYRQAPRKERELVASISYSVGRTYYADSVKGRFTISRDNAKNTVYLQMNSLKPEDSAVYYCASDRYWPYYSAYYTSYRMDYWGQGTQVTVSS	high polyreactivity
QVQLVESGGGLVQAGGSLRLSCADSGIIFWRYAMGWYRQAPGKERELVATITSGGSTDYADSVKGRFTISRDNAKNTVYLQMNSLKPEDTAVYYCAALGYATGYWRYYYWGQGTQVTVSS	low polyreactivity
QVQLVESGGGLVQAGGSLRLSCAASGRTFYHYAIGWSRQAPGKEREMVAAITRRGGSTYYADSVKGRFTISRDNAKNTVYLQMNRLKPEDTAVYYCAVDGVTSRRYVYEYWGQGTQVTVSS	high polyreactivity
QVQLVESGGGLVQAGGTLRLSCAASGSTFDVYAMGWYRQSPVKESELVADINYGDASTYYADSVKGRFTISRDNAKNTVYLQMISLNPEDTSVYYCAAFVYVLNYLSDGGSVYREHDYWGQGTKVTVSS	low polyreactivity
QVQLVESGGGLVQAGGSLRLSCAASGSTFTVNGMGWYRQAPGKERELVAAITWSGGSTYYADSVKGRFTISRDTAKNTVYLQMNSLKPEDTAVYYCAADENLYITGYDYWGQGTQVNVSS	low polyreactivity
QVQLVESGGGLFQAGGSLRLSCAASGRTFISNPMGWYRQAPGKVWEMVASITSGGSTNYADSVKGRFTISRDNAKNSVYVHMYSQNREDTAVYYCAAEGLVVGWTEEDYWGQGTQVTVSS	low polyreactivity
QVQLVESGGGLVQAGGSLRLSCAASGSTFGENDMGWYRQAPGKERELVAAITWSGGSTYYADSVKGRFTISRDNAKNPVYLQLNSLNPEDTAVYYCAARSTYRHWYRTGSRFDYWGQGTQVTVSS	low polyreactivity
